US20090041770A1

These substances were tested against human FcRn fused to a His-tag and glutathione S transferase (FcRn-His-GST), complex of FcRn heavy chain with beta-2-microglobulin (human) (UniProt P55899) (assay: AlphaScreen competition).

Substance	FcRn Binding ratio Variant / WT
P227G (antibody)	1.67
V282K (antibody)	1.44
D270S (antibody)	1.03
G237I (antibody)	1.01
E283P (antibody)	1.33
P271Y (antibody)	1.48
N325M (antibody)	1.43
E333F (antibody)	1.96
I332H (antibody)	1.24
V302I (antibody)	2.44
P238V (antibody)	1.43
H268E (antibody)	1.71
S239E (antibody)	1.47
G236N (antibody)	1.89
G237P (antibody)	2.8
E272D (antibody)	1.37
R292Y (antibody)	1.36
G237W (antibody)	1.2
T299Y (antibody)	3.85
E269I (antibody)	1.26
R301E (antibody)	2.92
P238T (antibody)	1.12
P329K (antibody)	1.27
E269W (antibody)	1.19
P238S (antibody)	1.12

Substance	FcRn Binding ratio Variant / WT
G236H (antibody)	1.48
N276R (antibody)	1.19
K222Y (antibody)	1.31
L234H (antibody)	1.48
Q295V (antibody)	1.19
V282Y (antibody)	1.92
Y278V (antibody)	1.27
S239G (antibody)	1.16
E272H (antibody)	1.45
E272V (antibody)	1.77
R255Y (antibody)	12.9
V240T (antibody)	2.61
V264D (antibody)	7.67
N276W (antibody)	2
L234I/L235D (antibody)	1.03
L328I/I332E (antibody)	2.21
E283K (antibody)	2.74
K246Y (antibody)	2.47
V264A (antibody)	1.12
F243W (antibody)	4.63
N276F (antibody)	1.18
S304N (antibody)	1.19
Y278S (antibody)	1.23
Y300Q (antibody)	1.11
D265R (antibody)	1.16

Substance	FcRn Binding ratio Variant / WT
Y300V (antibody)	1.09
V264S (antibody)	5.13
G237E (antibody)	1.36
A330G (antibody)	1.01
I332T (antibody)	1.02
G236T (antibody)	1.56
G237N (antibody)	1.39
L235Y (antibody)	1.02
K320L (antibody)	1.07
H224E (antibody)	5.11
K320H (antibody)	1.13
V282E (antibody)	1.91
E269P (antibody)	1.23
P227E (antibody)	1.49
P271I (antibody)	1.99
I332V (antibody)	59.3
V264I (antibody)	1.32
G236A (antibody)	1.75
T335N (antibody)	1.23
D249Q (antibody)	2.06
F241W/F243W/V262A/V264A (antibody)	1.91
T225W (antibody)	6.89
P331L (antibody)	1.77
K320W (antibody)	1.11
R292E (antibody)	1.45

Substance	FcRn Binding ratio Variant / WT
L328R (antibody)	1.82
I332Y (antibody)	1.43
R292D (antibody)	1.67
L328E/I332E (antibody)	1.44
G237T (antibody)	1.32
N276D (antibody)	1.18
D270I (antibody)	1.23
G236M (antibody)	1.6
S239D/N297D/I332E (antibody)	3.09
T335F (antibody)	1.19
L234D (antibody)	1.54
K274M (antibody)	1.01
K274E (antibody)	1.05
N325F (antibody)	1.22
Y296I (antibody)	1.71
S304T (antibody)	2.86
P238F (antibody)	2.41
V240M (antibody)	2.5
H285D (antibody)	2.4
I332N (antibody)	3.2
K274I (antibody)	1.08
P329R (antibody)	1.64
E333L (antibody)	1.03
D221Y (antibody)	2.74
A327M (antibody)	1.08

Substance	FcRn Binding ratio Variant / WT
P238I (antibody)	1.44
T335W (antibody)	1.35
P331F (antibody)	3.91
V282G (antibody)	1.16
P238G (antibody)	1.53
V264I/A330L/I332E (antibody)	1.13
L234Y (antibody)	1.9
S239D/I332D (antibody)	1.12
Y300G (antibody)	1.07
E233M (antibody)	1.13
G236V (antibody)	1.35
A330H (antibody)	9.87
T335L (antibody)	1.5
G237L (antibody)	5.91
E283R (antibody)	1.86
A327Y (antibody)	1.23
G237R (antibody)	1.36
G237M (antibody)	73.4
E269G (antibody)	1.34
E233G (antibody)	2.09
V284T (antibody)	1.15
E233Y (antibody)	1.86
